We go through two molecules from patent US20140087995A1 (published 2014).

The test has as its target T1, human calcitonin receptor (human, UniProt P30988 25-474).
T1 construct: whole, on cells; also called hCTR; hCT
T1 sequence (looked up): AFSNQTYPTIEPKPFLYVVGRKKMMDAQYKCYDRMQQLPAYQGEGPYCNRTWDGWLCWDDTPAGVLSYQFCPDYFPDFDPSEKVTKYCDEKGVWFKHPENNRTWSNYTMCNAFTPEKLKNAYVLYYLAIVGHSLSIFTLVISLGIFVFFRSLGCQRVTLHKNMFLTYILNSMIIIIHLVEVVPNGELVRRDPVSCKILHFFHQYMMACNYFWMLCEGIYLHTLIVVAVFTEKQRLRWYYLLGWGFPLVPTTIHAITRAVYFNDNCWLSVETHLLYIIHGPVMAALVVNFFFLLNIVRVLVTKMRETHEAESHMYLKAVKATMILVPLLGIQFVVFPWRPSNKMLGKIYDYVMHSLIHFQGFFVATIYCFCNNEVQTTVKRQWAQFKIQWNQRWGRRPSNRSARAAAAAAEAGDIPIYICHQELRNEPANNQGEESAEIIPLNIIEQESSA
Kind of test: SPA competition with 125I-calcitonin, membranes of BHK hCTR cells (Assay VII). The method in brief:
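BHK hCTR membranes 35 ng/μL + SPA beads 0.05 mg/well; buffer 50 mM Hepes pH 7.4, 1 mM CaCl2, 5 mM MgCl₂, 0.1% OA, 0.02% Tween20. 120 min, 25° C., shaking. Scintillation count; IC50 by one-site binding competition.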

Numbered stars: 1 amine (or outer) side, 2 acyl side, 3 side chain; on linkers, the order of the positions; unused ones are H or OH. Bridge positions count the residues as written; N and C are the ends. Side chains are listed from the residue outwards. Ends that are not written are not given here. * marks the point of attachment. C20 diacid = O=C(O)CCCCCCCCCCCCCCCCCCC(=O)*; γGlu = O=C(O)[C@H](CCC(=O)[*:2])N[*:1]

B1: N^ε1-[(4S)-4-carboxy-4-(19-carboxynonadecanoylamino)butanoyl]-[His14,Arg17,Pro21,Pro27]-h-amylin (peptide)
peptide: K([γGlu-C20 diacid])CNTATCATQRLAHFLRHSSPNFGAIPSSTNVGSNTY-NH2
modifications: disulfide 2-7; N-terminus assumed
SMILES: CC[C@H](C)[C@H](NC(=O)[C@H](C)NC(=O)CNC(=O)[C@H](Cc1ccccc1)NC(=O)[C@H](CC(N)=O)NC(=O)[C@@H]1CCCN1C(=O)[C@H](CO)NC(=O)[C@H](CO)NC(=O)[C@H](Cc1c[nH]cn1)NC(=O)[C@H](CCCNC(=N)N)NC(=O)[C@H](CC(C)C)NC(=O)[C@H](Cc1ccccc1)NC(=O)[C@H](Cc1c[nH]cn1)NC(=O)[C@H](C)NC(=O)[C@H](CC(C)C)NC(=O)[C@H](CCCNC(=N)N)NC(=O)[C@H](CCC(N)=O)NC(=O)[C@@H](NC(=O)[C@H](C)NC(=O)[C@@H]1CSSC[C@H](NC(=O)[C@@H](N)CCCCNC(=O)CC[C@H](NC(=O)CCCCCCCCCCCCCCCCCCC(=O)O)C(=O)O)C(=O)N[C@@H](CC(N)=O)C(=O)N[C@@H]([C@@H](C)O)C(=O)N[C@@H](C)C(=O)N[C@@H]([C@@H](C)O)C(=O)N1)[C@@H](C)O)C(=O)N1CCC[C@H]1C(=O)N[C@@H](CO)C(=O)N[C@@H](CO)C(=O)N[C@H](C(=O)N[C@@H](CC(N)=O)C(=O)N[C@H](C(=O)NCC(=O)N[C@@H](CO)C(=O)N[C@@H](CC(N)=O)C(=O)N[C@H](C(=O)N[C@@H](Cc1ccc(O)cc1)C(N)=O)[C@@H](C)O)C(C)C)[C@@H](C)O
notes: also called compound 70
As usually defined, the IC50 is the concentration that inhibits the measured activity by half. Turning to B1, the IC50 is 10.3 nM.

B2: N^ε1-[(4S)-4-carboxy-4-[[(4S)-4-carboxy-4-(19-carboxynonadecanoylamino)butanoyl]amino]butanoyl]-[Asp14,Arg17,Pro21,Pro26,Asp35]-h-amylin (peptide)
peptide: K([γGlu-γGlu-C20 diacid])CNTATCATQRLADFLRHSSPNFGAPLSSTNVGSDTY-NH2
modifications: disulfide 2-7; N-terminus assumed
SMILES: CC(C)C[C@H](NC(=O)[C@H](CCCNC(=N)N)NC(=O)[C@H](CCC(N)=O)NC(=O)[C@@H](NC(=O)[C@H](C)NC(=O)[C@@H]1CSSC[C@H](NC(=O)[C@@H](N)CCCCNC(=O)CC[C@H](NC(=O)CC[C@H](NC(=O)CCCCCCCCCCCCCCCCCCC(=O)O)C(=O)O)C(=O)O)C(=O)N[C@@H](CC(N)=O)C(=O)N[C@@H]([C@@H](C)O)C(=O)N[C@@H](C)C(=O)N[C@@H]([C@@H](C)O)C(=O)N1)[C@@H](C)O)C(=O)N[C@@H](C)C(=O)N[C@@H](CC(=O)O)C(=O)N[C@@H](Cc1ccccc1)C(=O)N[C@@H](CC(C)C)C(=O)N[C@@H](CCCNC(=N)N)C(=O)N[C@@H](Cc1c[nH]cn1)C(=O)N[C@@H](CO)C(=O)N[C@@H](CO)C(=O)N1CCC[C@H]1C(=O)N[C@@H](CC(N)=O)C(=O)N[C@@H](Cc1ccccc1)C(=O)NCC(=O)N[C@@H](C)C(=O)N1CCC[C@H]1C(=O)N[C@@H](CC(C)C)C(=O)N[C@@H](CO)C(=O)N[C@@H](CO)C(=O)N[C@H](C(=O)N[C@@H](CC(N)=O)C(=O)N[C@H](C(=O)NCC(=O)N[C@@H](CO)C(=O)N[C@@H](CC(=O)O)C(=O)N[C@H](C(=O)N[C@@H](Cc1ccc(O)cc1)C(N)=O)[C@@H](C)O)C(C)C)[C@@H](C)O
notes: also called compound 1
With B2, the IC50 came to 32.5 nM.
